Test system: dorsal air pouch of mice
Assay: In vivo air pouch model
Conditions: 1 μg/mice into air pouch, 24 h
Description: FIG. 3: Mice were treated with IL-17 vehicle (Ctrl), IL-17 (1 μg/mice) alone (IL-17) or peptide (FM-0410) (1 μg/mice) and thereafter total cell number from pouches inflammatory exudates was evaluated at 24 h. Data were expressed as millions of cells for pouch and presented as means±S.D. of n=7 mice per group. Statistical analysis was conducted by one-way ANOVA followed by Bonferroni's for multiple comparisons. ^##P≤0.01, ^###P≤0.005 vs Ctrl group; *P≤0.05 vs IL-17 group.
FIG. 4: Inflammatory supernatants obtained from the pouch cavities were assayed using a Proteome Profiler Cytokine Array for Ctrl, IL-17 and FM-0410 experimental group. Densitometric analysis is presented as heatmap. Data (expressed as INT/mm2) are presented as means±S.D. of positive spots of three independent experiments run each with n=7 mice per group.
FIG. 5: Mice were treated with IL-17 vehicle (Ctrl), IL-17 (1 μg/mice), or peptide (FM-0410) (1 μg/mice) and inflammatory fluids were assayed by Elisa for IL-6. Data were expressed as pg/ml and presented as means±S.D. of n=7 mice per group. Statistical analysis was conducted by one-way ANOVA followed by Bonferroni's for multiple comparisons. ^##P≤0.01 vs CTRL group. […]
Specifically, dorsal air pouches were prepared by injection of 2.5 ml of air on day 0 and day 3 as previously described (Maione et al., 2009). […] Inflammatory exudates were collected and measured to evaluate the level of inflammatory cyto-chemokines. Cell number was determined by TC20 automated cell counter (Bio-Rad, Milan, Italy) using Bio-Rad's TC20 automated cell counter uses disposable slides, TC20 trypan blue dye (0.4% trypan blue dye w/v in 0.81% sodium chloride and 0.06% potassium phosphate dibasic solution) and a CCD camera to count cells based on the analyses of capture images (Maione et al., 2018).
Methods: The levels of IL-6 in the cellular and air pouch inflammatory supernatants at 24 h were measured using commercially available enzyme-linked immunosorbent assay kit (ELISA kit, R&D System, Milan, Italy) according to the manufacturer instructions. […]

B1: IL-17: recombinant mouse IL-17 purchased from R&D System; full-length cytokine used as comparator and stimulus (protein, UniProt Q62386 26-158, looked up)
Interleukin-17A: AAIIPQSSACPNTEAKDFLQNVKVNLKVFNSLGAKVSSRRPSDYLNRSTSPWTLHRNEDPDRYPSVIWEAQCRHQRCVNAEGKLDHHMNSVLIQQEILVLKREPESCPFTFRVEKMLVGVGCTCVASIVRQAA
cyto-chemokines profile of pouch fluid (Proteome Profiler Cytokine Array): significant increase of cyto-chemokines profile compared to ctrl group | level of IL-6 in pouch fluids: increased level of IL-6 compared to control group | number of inflammatory leukocytes (total cell number from pouch exudates): significant differences in the number of inflammatory leukocytes compared to control group

Source: patent US20260035452A1 (THE UNIVERSITY OF BIRMINGHAM, priority 2022, published 2026)
